# The supplement of paper PMC10567573
# ± gives the standard deviation.
# Assay: protein stability index of a GFP-peptide fusion (GPS, HEK-293T) (PSI 1-6); higher = more stable
# Conditions: c terminus: a fixed tail appended
# 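Also: 24-mer peptide tiles fused after GFP, lentivirally expressed, FACS-sorted into six equal bins by GFP/DsRed ratio, decoded by Illumina sequencing, PSI is the read-weighted mean bin number.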
Sequence,protein stability index (treatment: DMSO),"protein stability index (treatment: MLN4924 1 uM, 8 h)"
MLELRHRGSCPGPREAVSPPHREG [CDS1],4.26 ± 0.29,4.39 ± 0.29
MMPLAEAGALAQGGGPSATEWACI [C6orf223],3.65 ± 0.34,3.52 ± 0.25
MMRMFSENLAHHLEIDSGVITLDP [TRIM15],2.52 ± 0.16,2.69 ± 0.37
MMVRQMKEDAKGKSEEELAECFRI [TNNC2],–,4.3 ± 0.52
MMYSAELWRYRTITFSGRPSRVHA [FBXO39],2.23 ± 0.091,2.46 ± 0.2
MNIIELEIPDQNIDVEALQVAFGS [GMCL1],2.86 ± 0.31,2.73 ± 0.072
MPLREGSSFQDLLGDALAGPPRAP [HES6],3.86 ± 0.34,4.05 ± 0.4
MQAEAEAASVRMRGEAEAFAIGAR [FLOT1],4.62 ± 0.31,4.75 ± 0.31
MQCPVIAVNSGGPLESIDHSVTGF [ALG2],2.83 ± 0.42,3.26 ± 0.3
MSHAAEPARDGVEASAEGPRAVFV [TFE3],4.62 ± 0.13,4.86 ± 0.09
MSRMINKYKRRRFQKTKNLLTGET [CLPTM1],3.05 ± 0.32,3.26 ± 0.35
MSYSCCLPSLGCRTSCSSRPCVPP [KRT34],2.22 ± 0.17,2.37 ± 0.4
MTGAYNNFFRMFDRNTKRDVTLEA [PPP2R2C],3.03 ± 0.45,3.14 ± 0.33
MVERRGPGRPRTDGENVFTGQSKI [KMT5A],4.19 ± 0.36,–
MYFSQEEWELLDPTQKALYNDVMQ [ZNF75A],3.67 ± 0.08,3.74 ± 0.33
MYSEIQRERADIGGLMARPEYREW [FAM107A],2.93 ± 0.26,2.92 ± 0.42
NARGASIFSVTALDPDSKENAQII [PCDHGA10],3.75 ± 0.12,3.97 ± 0.24
NDGWTPLHVAAHYGRDSFVRLLLE [ASB7],2.45 ± 0.18,2.59 ± 0.27
NDRVQTIITQLEDSRRVTKENSHQ [TRIM63],4.99 ± 0.23,4.92 ± 0.13
NDTAGPELPDPLGGLLDEAMLDEI [NFE2L1],5.22 ± 0.41,5.6 ± 0.13
NEIQCTGNEKSIIDCKFNAESQGC [LOXL2],4.88 ± 0.36,4.79 ± 0.58
NELTLNEKNFFPEYNYDWWEKKPF [CHGB],2.73 ± 0.24,3 ± 0.35
NENPNNFQILLLSDPSTIEASNFQ [PNLIPRP1],3.33 ± 0.36,3.44 ± 0.5

Sequence,protein stability index (treatment: DMSO),"protein stability index (treatment: MLN4924 1 uM, 8 h)"
NFLIGRQGNKKEHVIHIIDFGLAK [CSNK1G1],2.45 ± 0.66,1.89 ± 0.39
NFNPLLVAGGVAVAAIALILGVAF [CEND1],3.24 ± 0.27,3.47 ± 0.22
NGFGLVEDSAQNCFALIPKAPKKD [EFHC1],4.75 ± 0.34,4.74 ± 0.13
NHSLETCETTLFALRMATWNQILD [PTGFR],2.25 ± 0.52,2 ± 0.27
NIPERASGPEGNLNQIVTEPDANF [FAM104B],5.35 ± 0.15,5.23 ± 0.47
NITRLQLETEIEALKEELLFMKKN [KRT18],2.82 ± 0.091,3.05 ± 0.51
NKFASFIDKVRFLEQQNQVLETKW [KRT71],2.58 ± 0.42,2.49 ± 0.4
NKPGCEHECVNMEESYYCRCHRGY [MATN2],4.3 ± 0.72,4.24 ± 0.22
NKYMVTDGAAYIGNFDWVGNDFTQ [PLD5],2.87 ± 0.25,2.62 ± 0.3
NLVLSEDRKSVKFVETRLRDLPDT [TRIM39],4.31 ± 0.25,4.37 ± 0.2
NMLKNIELFDKLSLRFNGRVLFIK [KCTD10],2.68 ± 0.48,2.43 ± 0.35
NNADLCLTDDKQVLNTQGQKTSGQ [DLC1],5.18 ± 0.27,5.16 ± 0.23
NNSWIRKNSTMVNSEDIFLLLCLK [TRIM43],2.84 ± 0.42,2.23 ± 0.43
NPPSDFSFQNMNSKRKAETWKKNR [STK38L],4.65 ± 0.45,4.42 ± 0.22
NPVFQDSWDTESSGSDSGGSSSSS [FAM104A],5.37 ± 0.37,5.54 ± 0.26
NQAAIMELDDTLKYSFLQFDPAPR [PPP2CA],3.25 ± 0.17,3.38 ± 0.21
NQACKLLSDDYEQVRSAAVQLIWV [INTS4],2.62 ± 0.29,2.59 ± 0.36
NQLVGPESIAHIGDVMFTGTADGR [APMAP],4.77 ± 0.31,4.69 ± 0.08
NRRLQLLEEENKERAKREMVMYSI [MFF],3.96 ± 0.19,3.6 ± 0.13
NSDMQILTASGDGTCALWDVESGQ [GNB5],4.81 ± 0.085,4.61 ± 0.36
NTNNLTFLMDLPSAGRSMPEASDQ [RNF180],4.28 ± 0.14,4.39 ± 0.2
NVVTIGLAFFPFLHRLFREKSLDQ [PHTF1],2.24 ± 0.32,2.3 ± 0.47
